The values below come from patent US20200317802A1 (Merck KGaA, published 2020).

By Kd is commonly meant a measure of binding affinity in units of concentration.

Assay [1] deals with T1, recombinant human ADAMTS5 (R&D Systems cat #2198-AD) (human, UniProt Q9UNA0 262-622, limits assumed).
T1 sequence: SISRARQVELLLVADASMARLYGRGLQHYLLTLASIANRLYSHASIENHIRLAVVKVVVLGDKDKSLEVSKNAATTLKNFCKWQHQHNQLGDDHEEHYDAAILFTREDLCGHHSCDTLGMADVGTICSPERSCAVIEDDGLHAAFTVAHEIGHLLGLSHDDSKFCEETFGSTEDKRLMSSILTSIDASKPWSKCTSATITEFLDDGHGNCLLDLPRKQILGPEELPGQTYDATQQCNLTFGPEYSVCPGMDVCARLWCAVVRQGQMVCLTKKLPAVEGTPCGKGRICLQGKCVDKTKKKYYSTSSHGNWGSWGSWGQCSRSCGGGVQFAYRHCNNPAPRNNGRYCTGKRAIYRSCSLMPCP
Nature of the assay: cell-based or functional assay.

Assay [2] has as its target T1, recombinant human ADAMTS5 (R&D Systems …). Nature of the assay: SPR kinetics, Biacore T100, ADAMTS5 immobilised. The method, then: (§1) For referencing, affinity for human ADAMTS5 was also determined. Thereto, rat and human ADAMTS5 were immobilized onto a CM5 chip via amine coupling, using EDC and NHS chemistry. Purified Nanobodies were injected for 2 minutes at different concentrations (between 1 and 1000 nM) and allowed to dissociate for 25 min at a flow rate of 45 μl/min. The kinetic constants were calculated from the sensorgrams using the BIAEvaluation software (1:1 interaction).

Assay [3] concerns the target T2, rat recombinant ADAMTS5 (rat, UniProt Q9R001 262-618 (mouse entry)).
T2 construct: in house, HEK293, His tag in the entry
T2 chain: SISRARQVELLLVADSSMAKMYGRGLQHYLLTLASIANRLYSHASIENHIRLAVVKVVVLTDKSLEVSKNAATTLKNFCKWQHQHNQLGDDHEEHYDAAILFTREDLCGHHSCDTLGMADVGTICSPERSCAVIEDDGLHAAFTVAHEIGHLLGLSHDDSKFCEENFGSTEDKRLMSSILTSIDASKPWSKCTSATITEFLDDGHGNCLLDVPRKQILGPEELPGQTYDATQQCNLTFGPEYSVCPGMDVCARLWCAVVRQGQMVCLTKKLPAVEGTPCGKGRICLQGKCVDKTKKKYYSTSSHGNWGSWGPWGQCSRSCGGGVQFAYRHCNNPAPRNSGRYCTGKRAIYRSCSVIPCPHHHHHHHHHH
Nature of the assay: SPR kinetics, Biacore T100, ADAMTS5 immobilised. As for the experimental part: as §1
Background: SPR reads the build-up and loss of mass on a sensor chip optically.

B1: Nanobody 049 (11B06 (N52S)) (VHH)
VHH: EVQLVESGGGLVQAGGSLRLSCAASGLTFRRNAMGWFRQAPGKERELLAGISWSGGTTYYVDSVKGRFTISRDNAKNTVDLQMISPKPEDTAVYYCAADGDIGTLVNDENPRYWGQGTLVTVSS
notes: N-glycosylation motif knocked out; also called construct 049
As to B1, the “AlphaLISA IC50, - HSA” value in assay [1] is 0.1 nM. For the same molecule, the Kd in assay [2] turned out to be 3.5 nM; in assay [3], 1.7 nM.

B2: Nanobody 093 (3F04 (N100fQ)) (VHH)
VHH: EVQLVESGGGSVQAGGSLRLSCVASGRYPMAWFRQAPGKEREFVAGVSWGGDRTYYADSVQGRFTVSRDYAKNTLYLQMNSLKPEDAAVYYCAGDPWGRLFRVKDQYSDWGQGTLVTVSS
notes: N-glycosylation motif knocked out; also called construct 093
For B2, the Kd was found to be 4.9 nM in assay [2] and 5.3 nM in assay [3].
